Reference: patent US20240368277A1 (ORIONIS BIOSCIENCES, published 2024)

How the values were obtained:
[1] = target: T1, His6-tagged recombinant extracellular domain of human signal regulatory protein alpha (hSIRP1α) (human, UniProt P78324 31-373); test: ELISA, crude periplasmic extracts on coated His6-tagged hSIRP1α extracellular domain
T1 construct: extracellular domain; also called antigen; not shown: His6 tag
Procedure: The VHH library was panned on solid-phase coated antigen (200 μg/ml in 100 mM NaHCO₃, pH 9.3) for 3 rounds. The enrichment for antigen-specific phages was assessed after each round of panning by comparing the number of phagemid particles eluted from antigen-coated wells with the number of phagemid particles eluted from negative control (uncoated blocked) wells. […] There was no enrichment after the 1st panning round. In total, 190 colonies from panning round 2 were randomly selected and analyzed by ELISA for the presence of antigen-specific VHHs in their periplasmic extracts (ELISA using crude periplasmic extracts including soluble VHHs) (see FIG. 5). The antigens used for panning and ELISA screening were the same as the ones used for immunization, using uncoated blocked wells as negative control. […] Based on sequence data of the positive colonies, 27 different full length VHHs were distinguished (see FIGS. 4A, 4B, and 5 and SEQ ID Nos: 300-326).

[2] = target: T2, full length human SIRPA expressed on transiently transfected Hek293T cells (pMET7 FLAG-hSIRPA) (human, UniProt P78324 31-504); test: FACS, serial dilution of purified VHH on hSIRPA- or empty vector (MOCK)-transfected Hek293T cells; FITC-coupled anti-HA antibody
T2 construct: whole, on cells; also called human SIRP1α; human SIRPα
Procedure: Expression-vectors (pMECS) encoding the 27 putative human SIRPA binding VHHs were transformed to WK6 cells. VHHs (with a C-terminal HA and His-tag) were expressed in periplasmic extracts upon IPTG overnight stimulation and purified from the periplasmic extracts using the HisPur Cobalt Spin Plates (ThermoFisher) according to the manufacturer's guidelines. Purified VHHs were applied in a FACS binding-assay at 1 μg/ml: Hek293T cells were transiently transfected with a full length human SIRPA plasmid (pMET7 FLAG-hSIRPA) or an empty vector (MOCK). Two days after transfection, cells were resuspended and incubated with purified VHH in FACS buffer (PBS+0.5 mM EDTA+3% FBS). VHH binding was detected using a FITC-coupled anti-HA Ab (Genscript). Samples were acquired with a MACSQuant X instrument (Miltenyi Biotec) and analyzed using the FlowLogic software (Miltenyi Biotec).
Based on this initial binding-experiment and on the comparison of the 27 sequences, 5 VHHs (4 members of sequence group 1 which encompasses 26 sequences and 2HSI22 which is a unique representative of sequence group 2) were studied in more detail for binding to human SIRPA. Binding in FACS was measured as described above. In brief, hSIRPA or empty vector (MOCK) transfected cells were incubated with a serial dilution of purified VHH and binding detected using a FITC-coupled anti-HA Ab (GenScript). Data are summarized in FIG. 7 and illustrate concentration dependent specific binding to hSIRPA for all 5 VHHs.

T1 sequence (P78324 31-373): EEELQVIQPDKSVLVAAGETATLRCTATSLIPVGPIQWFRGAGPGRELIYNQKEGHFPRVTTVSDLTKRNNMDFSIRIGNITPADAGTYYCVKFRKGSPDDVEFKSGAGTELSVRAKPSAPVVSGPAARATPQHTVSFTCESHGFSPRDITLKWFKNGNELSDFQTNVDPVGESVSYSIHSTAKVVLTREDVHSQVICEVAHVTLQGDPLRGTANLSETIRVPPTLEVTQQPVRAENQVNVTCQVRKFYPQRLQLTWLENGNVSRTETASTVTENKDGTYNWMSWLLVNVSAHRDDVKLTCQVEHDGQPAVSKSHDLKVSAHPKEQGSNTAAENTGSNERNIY
T2 sequence (P78324 31-504): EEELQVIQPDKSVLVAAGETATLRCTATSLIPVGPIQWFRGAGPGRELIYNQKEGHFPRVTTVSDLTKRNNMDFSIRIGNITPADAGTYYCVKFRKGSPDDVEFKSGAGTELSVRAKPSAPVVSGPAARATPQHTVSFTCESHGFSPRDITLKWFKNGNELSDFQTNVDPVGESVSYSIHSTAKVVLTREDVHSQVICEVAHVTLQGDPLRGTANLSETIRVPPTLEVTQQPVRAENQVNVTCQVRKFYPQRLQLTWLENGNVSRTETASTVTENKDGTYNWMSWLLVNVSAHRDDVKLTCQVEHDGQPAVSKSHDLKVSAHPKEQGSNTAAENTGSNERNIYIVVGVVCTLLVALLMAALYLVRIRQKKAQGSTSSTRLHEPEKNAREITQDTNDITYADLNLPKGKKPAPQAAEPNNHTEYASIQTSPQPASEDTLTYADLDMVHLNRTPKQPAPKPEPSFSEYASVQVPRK

Row | Binder | binding result [1] | binding result [2]
1 | 2HSI22 (VHH, The entry includes the C-terminal AAA linker, HA tag and His6 tag, as expressed from pMECS) VHH: QVQLQESGGGLVQPGGSLRLSCAASGLNFRRYTMGWFRQAPGKEREFVGVINWSDDSIYYADSVKGRFAISRDNTKNTVYLQMASLKPEDTAVYYCAASPQWDTRVRQTMRGKYDYWGQGTQVTVSS | binds | binds
2 | 2HSI1 (VHH, The entry includes the C-terminal AAA linker, HA tag and His6 tag, as expressed from pMECS) VHH: QVQLQESGGGVVQAGDSLRLSCVASGRTFSSLDMGWFRQAPGKEREFVAGISRSGISQYYADSMKGRFTISRDNAKNLVYLQMNSLKPEDTAVYYCAAALTFRGSDLPRDSNYWGQGTQVTVSS | binds | 
3 | 2HSI86 (VHH, The entry includes the C-terminal AAA linker, HA tag and His6 tag, as expressed from pMECS) VHH: QVQLQESGGGLVQPGGSLRLSCAASGRTFSSLDMGWFRQAPGKEREFVAGISRSGISQYYADSMKGRFTISRDNAKNLVYLQINSLKPEDTAVYYCAAALTFRGSDLPRDSNYWGQGTQVTVSS | binds | binds
4 | 2HSI98 (VHH, The entry includes the C-terminal AAA linker, HA tag and His6 tag, as expressed from pMECS) VHH: QVQLQESGGGVVQAGDSLGLSCVASGRTFSSLDMGWFRQAPGKEREFVAGISRSGISQYYADSMKGRFTISRDNAKNLVYLQMNSLKPEDTAVYYCAAALTFRGSDLPRDSNYWGQGTQVTVSS | binds | 
5 | 2HSI68 (VHH, The entry includes the C-terminal AAA linker, HA tag and His6 tag, as expressed from pMECS) VHH: QVQLQESGGGWVQPGGSLRLSCEASGRTSSSLDMGWFRQAPGKEREFVAGISRTGISAYYADSMKGRFTISRDNAKNLVYLQMNSLKSEDTAVYYCAAALTFRGSDLPRDSNYWGQGTQVTVSS | binds | 
6 | 2HSI31 (VHH, The entry includes the C-terminal AAA linker, HA tag and His6 tag, as expressed from pMECS) VHH: QVQLQESGGGVVQAGDSLRLSCVASGRTFSSLDMGWFRQAPGKEREFVAGISRSGISQYYADSMRGRFTISRDNAKNLVYLQMNSLKPEDTAVYYCAAALTFRGSDLPRDSNYWGQGTQVTVSS | binds | 
7 | 2HSI55 (VHH, The entry includes the C-terminal AAA linker, HA tag and His6 tag, as expressed from pMECS) VHH: QVQLQESGGGVVQAGDPLRLSCVASGRTFSSLDMGWFRQAPGKEREFVAGISRSGISQYYADSMKGRFTISRDNAKNLVYLQMNSLKPEDTAVYYCAAALTFRGSDLPRDSNYWGQGTQVTVSS | binds | 
8 | 2HSI90 (VHH, The entry includes the C-terminal AAA linker, HA tag and His6 tag, as expressed from pMECS) VHH: QVQLQESGGGVVQAGDSLRLSCVASERTFSSLDMGWFRQAPGKEREFVAGISRSGISQYYADSMKGRFTISRDNAKNLVYLQMNSLKPEDTAVYYCAAALTFRGSDLPRDSNYWGQGTQVTVSS | binds | 
9 | 2HSI80 (VHH, The entry includes the C-terminal AAA linker, HA tag and His6 tag, as expressed from pMECS) VHH: QVQLQESGGGVVQAGDSLRLSCVASGRTFSSLDMGWFRQAPGKEREFVAGVSRSGISQYYADSMKGRFTISRDNAKNLVYLQMNSLKPEDTAVYYCAAALTFRGSDLPRDSNYWGQGTQVTVSS | binds | 
10 | 2HSI24 (VHH, The entry includes the C-terminal AAA linker, HA tag and His6 tag, as expressed from pMECS) VHH: QVQLQESGGGVVQAGDSLRLSCVASGRTFSSLDMGWFRQTPGKEREFVAGISRSGISQYYADSMKGRFTISRDNAKNLVYLQMNSLKPEDTAVYYCAAALTFRGSDLPRDSNYWGQGTQVTVSS | binds | 
11 | 2HSI54 (VHH, The entry includes the C-terminal AAA linker, HA tag and His6 tag, as expressed from pMECS) VHH: QVQLQESGGGVVQAGDSLRLSCVASGRTFSSLDMGWFRQAPGKEREFVAGISRSGISQYYANSMKGRFTISRDNAKNLVYLQMNSLKPEDTAVYYCAAALTFRGSDLPRDSNYWGQGTQVTVSS | binds | 
12 | 2HSI35 (VHH, The entry includes the C-terminal AAA linker, HA tag and His6 tag, as expressed from pMECS) VHH: QVQLQESGGGLVQPGGSLRLSCAASGFTFGGYDMGWFRQAPGKEREFVAGISRSGISQYYADSMKGRFTISRDNAKNLVYLQMNSLKPEDTAVYYCAAALTFRGSDLPRDSNYWGQGTQVTVSS | binds | binds
13 | 2HSI102 (VHH, The entry includes the C-terminal AAA linker, HA tag and His6 tag, as expressed from pMECS) VHH: QVQLQESGGGVVQAGDSLRLSCVASGRAFSSLDMGWFRQAPGKEREFVAGISRSGISQYYADSMKGRFTISRDNAKNLVYLQMNSLKPEDTAVYYCAAALTFRGSDLPRDSNYWGQGTQVTVSS | binds | 
14 | 2HSI109 (VHH, The entry includes the C-terminal AAA linker, HA tag and His6 tag, as expressed from pMECS) VHH: QVQLQESGGGSVQAGDSLRLSCVASGRTFSSLDMGWFRQAPGKEREFVAGISRTGISAYYADSMKGRFTISRDNAKNLVYLQMNSLKSEDTAVYYCAAALTFRGSDLPRDSNYWGQGTQVTVSS | binds | 
15 | 2HSI3 (VHH, The entry includes the C-terminal AAA linker, HA tag and His6 tag, as expressed from pMECS) VHH: QVQLQESGGGVVQAGDSLKLSCVASGRTFSSLDMGWFRQAPGKEREFVAGISRSGISQYYADSMKGRFTISRDNAKNLVYLQMNSLKPEDTAVYYCAAALTFRGSDLPRDSNYWGQGTQVTVSS | binds | 
16 | 2HSI57 (VHH, The entry includes the C-terminal AAA linker, HA tag and His6 tag, as expressed from pMECS) VHH: QVQLQESGGGLVQAGGSLRLSCAASGRTFSSLDMGWFRQAPGKEREFVAGISRSGISQYYADSMKGRFTISRDNAKNLVYLQMNSLKPEDTAVYYCAAALTFRGSDLPRDSNYWGQGTQVTVSS | binds | 
17 | 2HSI88 (VHH, The entry includes the C-terminal AAA linker, HA tag and His6 tag, as expressed from pMECS) VHH: QVQLQESGGGVVQAGDSLRLSCVASGHTFSSLDMGWFRQAPGKEREFVAGISRSGISQYYADSMKGRFTISRDNAKNLVYLQMNSLKPEDTAVYYCAAALTFRGSDLPRDSNYWGQGTQVTVSS | binds | 
18 | 2HSI105 (VHH, The entry includes the C-terminal AAA linker, HA tag and His6 tag, as expressed from pMECS) VHH: QVQLQESGGGVVQAGDSLRLSCVASGRTFSSLDMGWFRQAPGKEREFVAGISRSGISQYYADSMKGRFTISRDNAKNLVYLQMNSLRPEDTAVYYCAAALTFRGSDLPRDSNYWGQGTQVTVSS | binds | 
19 | 2HSI113 (VHH, The entry includes the C-terminal AAA linker, HA tag and His6 tag, as expressed from pMECS) VHH: QVQLQESGGGLVQAGDSLRLSCVASGRTFSSLDMGWFRQAPGKEREFVAGISRSGISQYYADSMKGRFTISRDNAKNLVYLQMNSLKPEDTAVYYCAAALTFRGSDLPRDSNYWGQGTQVTVSS | binds | 
20 | 2HSI89 (VHH, The entry includes the C-terminal AAA linker, HA tag and His6 tag, as expressed from pMECS) VHH: QVQLQESGGGVVQAGDSLRLSCVASERTFSSLDMGWFRQAPGKEREFVAGISRSGISQYYADSMKGRFTISRDNAKNLVYLQMNSLKPEDTAVYYCAAALTFRGSNLPRDSNYWGQGTQVTVSS | binds | binds
21 | 2HSI49 (VHH, The entry includes the C-terminal AAA linker, HA tag and His6 tag, as expressed from pMECS) VHH: QVQLQESGGGVVQTGDSLRLSCVASGRTFSSLDMGWFRQAPGKEREFVAGISRSGISQYYADSMKGRFTISRDNAKNLVYLQMNSLKPEDTAVYYCAAALTFRGSDLPRDSNYWGQGTQVTVSS | binds | 
22 | 2HSI77 (VHH, The entry includes the C-terminal AAA linker, HA tag and His6 tag, as expressed from pMECS) VHH: QVQLQESGGGSVQAGGSLRLSCVASGRTFSSLDMGWFRQAPGKEREFVAGISRSGISQYYADSMKGRFTISRDNAKNLVYLQMNSLKPEDTAVYYCAAALTFRGSDLPRDSNYWGQGTQVTVSS | binds | 
23 | 2HSI110 (VHH, The entry includes the C-terminal AAA linker, HA tag and His6 tag, as expressed from pMECS) VHH: QVQLQESGGGLVQSGDSLRLSCVASGRTFSSLDMGWFRQAPGKEREFVAGISRSGISQYYADSMKGRFTISRDNAKNLVYLQMNSLKPEDTAVYYCAAALTFRGSDLPRDSNYWGQGTQVTVSS | binds | 
24 | 2HSI32 (VHH, The entry includes the C-terminal AAA linker, HA tag and His6 tag, as expressed from pMECS) VHH: QVQLQESGGGVVQAGDSLRLSCVASGRTFSSLDMGWFRQAPGKEREFVAGISRTGISAYYADSMKGRFTISRDNAKNLVYLQMNSLKSEDTAVYYCAAALTFRGSDLPRDSNYWGQGTQVTVSS | binds | binds
25 | 2HSI40 (VHH, The entry includes the C-terminal AAA linker, HA tag and His6 tag, as expressed from pMECS) VHH: QVQLQESGGGVVQAGDSLRLSCVASGRTFSSLDMGWFRQAPGKEREFVAGISRSGISQYYADSMKGRFTISRDNAKSLVYLQMNSLKPEDTAVYYCAAALTFRGSDLPRDSNYWGQGTQVTVSS | binds | 
26 | 2HSI44 (VHH, The entry includes the C-terminal AAA linker, HA tag and His6 tag, as expressed from pMECS) VHH: QVQLQESGGGLVQAGGSLRLSCTASGRTFSSLDMGWFRQAPGKEREFVAGISRSGISQYYADSMKGRFTISRDNAKNLVYLQMNSLKPEDTAVYYCAAALTFRGSDLPRDSNYWGQGTQVTVSS | binds | 
